# Source: PMC10326071
# Legend:
# [1] = biological target: middle domain of human Paip1 (Paip1M, residues 78-296) (human) (UniProt Q9H074); assay: BLI; […]; association 30 s, dissociation 80 s; 25 C; global fit, 1:1 model
# [2] = biological target: middle domain of human poly(A)-binding protein-interacting protein 1 (Paip1M, residues 78-296) (human) (UniProt Q9H074); assay: BLI; […]; 1×PBS pH 7.4, 0.1% surfactant P20, 0.1% BSA, 500 mM NaCl; 25 °C; global fit, 1:1 model
# [3] = biological target: SARS-CoV SUD-core (SARS-CoV, UniProt P0C6X7 1207-1470); assay: BLI; details: protein: recombinant; tags: N-terminal 6xHis; G4
# [4] = biological target: T1, SARS-CoV-2 SUD-core (SARS-CoV-2, UniProt P0DTD1 1231-1494); assay: BLI; details: protein: recombinant; tags: N-terminal 6xHis; G4
# [5] = biological target: T1, SARS-CoV-2 SUD-core; assay: BLI; Fig. 2C titration; details: protein: recombinant; tags: N-terminal 6xHis; G4
# [6] = biological target: T1, SARS-CoV-2 SUD-core; assay: EMSA; no compound; details: protein: recombinant; tags: N-terminal 6xHis; label: none stated; SYBR-Gold stain; G4 (predicted)
# Sequence of middle domain of human Paip1 (Paip1M, residues 78-296) (human) (Q9H074 157-375): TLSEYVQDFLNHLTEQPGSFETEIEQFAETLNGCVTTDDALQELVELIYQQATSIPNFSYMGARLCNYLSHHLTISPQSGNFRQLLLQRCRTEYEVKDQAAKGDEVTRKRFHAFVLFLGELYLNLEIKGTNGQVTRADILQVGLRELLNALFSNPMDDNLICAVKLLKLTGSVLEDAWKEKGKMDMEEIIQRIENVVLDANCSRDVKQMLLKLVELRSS
# Sequence of middle domain of human poly(A)-binding protein-interacting protein 1 (Paip1M, residues 78-296) (human) (Q9H074 157-375): as above
molecule,measurement,setting,value
SARS-CoV SUD-core (nsp3 389-652) (domain or fragment),koff,[1],0.0066 s⁻¹
same,Kd,[2],4400 nM
SARS-CoV-2 SUD-core (nsp3 residues 413-676) (domain or fragment),koff,[1],0.0055 s⁻¹
CGGGAGGGCGGGGAGGGC (structured_RNA) [G4-TRF2 (BLI)],Kd,[3],17 nM
same,Kd,[4],35.8 nM
same,Kd,[5],170 nM
GGCUUAUAGGUUUAAUGGUAUUGG (structured_RNA) [G4-24268 (EMSA)],binding result,[6],binds
